Data: publication PMC5932250 (Journal of the American Chemical Society, 2018)

How the values were obtained:
[1] = biological target: FITC-SgbA(leader) (Streptomyces globisporus subsp. globisporus NRRL B2293); experiment: fluorescence polarisation
[2] = system: protein tyrosine phosphatase 1B (PTP1B); details: at 50 μM; ref [48]; cited from earlier work

Substance | Kd [1] [nM] | inhibition of PTP1B [2] [%]
His6-SgbL(kinase 208-548) (domain or fragment) | 357 | 
streptocollin |  | 33
His6-SgbL(lyase-kinase 1-548) (domain or fragment) | 351 | 
